# Columns and labels:
# Experiment in all cases: cell-based or functional assay
# [1] = target: HIV-1 envelope (Env) of virus AC10.0.29 (HIV-1)
# [2] = target: HIV-1 envelope (Env) of virus CAP45.2.00.G3 (HIV-1)
# [3] = target: HIV-1 envelope (Env) of virus CNE20 (HIV-1)
# [4] = target: HIV-1 envelope (Env) of virus DU172.17 (HIV-1)
# [5] = target: HIV-1 envelope (Env) of virus REJO4541.67 (HIV-1)
# [6] = target: HIV-1 envelope (Env) of virus WITO4160.33 (HIV-1)
substance,measurement,setting,value
3BNC117 (antibody),"IC50 of viral neutralization (Env.IMC.LucR virus, TZM-BL reporter cells)",[1],11 µg/mL
same,"IC50 of viral neutralization (Env.IMC.LucR virus, TZM-BL reporter cells)",[2],2.7 µg/mL
same,"IC50 of viral neutralization (Env.IMC.LucR virus, TZM-BL reporter cells)",[3],> 50 µg/mL
same,"IC50 of viral neutralization (Env.IMC.LucR virus, TZM-BL reporter cells)",[4],1.25 µg/mL
same,"IC50 of viral neutralization (Env.IMC.LucR virus, TZM-BL reporter cells)",[5],0.07 µg/mL
same,"IC50 of viral neutralization (Env.IMC.LucR virus, TZM-BL reporter cells)",[6],0.053 µg/mL

# From patent US20210040185A1
